Patent publication US20240026407A1, “MODIFICATION OF SAPONINS” (GLAXOSMITHKLINE BIOLOGICALS SA, priority 2020, published 2024)

Experiments:
Type in all cases: biochemical, Quillaja saponaria
[1] = Experiment 4-1: screening of glucosidases for deglycosylation with purified QS-18 (0.04 mg/ml) at pH 7.5 and room temperature; details: pH 7.5, room temperature, 20 h, clarified E. coli lysate, QS-18 2150 to QS-21 1988 by LCMS/MS
In short: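 Candidate glucosidases expressed in E. coli BL21(DE3) (pET24b+, autoinduction, 20 °C for 20 h); clarified lysates in 100 mM potassium phosphate pH 7.5 incubated with QS-18 (0.04 mg/ml final) 20 h at room temperature. Quenched with MeCN, analysed by LC-MS/MS for % conversion; hits >3 S.D. above negative control.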

[2] = Experiment 4-2: screening of glucosidases for deglycosylation with purified QS-18 (1 mg/ml) at pH 6 and 30 deg C; details: pH 6, 30 degC, 18 hrs, clarified lysate, LCMS/MS
In short: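 Clarified lysates of glucosidase-expressing cells in 100 mM potassium phosphate pH 6 were incubated 18 h at 30 °C with QS-18 at 1 mg/ml final. Reactions quenched with MeCN; deglycosylation activity determined by LC-MS/MS.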

[3] = Experiment 4-4: screening of glucosidases for deglycosylation of QS-18 in crude bark extract (1 in 20 dilution) to QS-21; details: CBE 1 in 20 dilution, pH 6, 25 degC, 18 hours; % conversion of Middle Peak by UV HPLC
Description: Lysates were prepared as in Experiment 4-2.
Crude bark extract (CBE) was adjusted to pH 6 by dropwise addition of 2M NaOH with stirring. 25 uL of clarified lysate was transferred to a reaction plate, 22.5 ul of 100 mM potassium phosphate buffer pH 6 was added, 2.5 ul CBE at pH 6 was added. Reaction plates were sealed, incubated at 25 degC with shaking for 18 hours, then quenched by addition of 50 uL acetonitrile (MeCN). Quenched reaction plates were re-sealed and incubated at 20 degC with shaking for 10 min. The reaction plates were centrifuged (10 min, 4 degC) and analysed by UV HPLC with the method below:
Three key peaks of interest are apparent using this chromatography: Left Peak (retention time approximately 2.30-2.35 min) comprising mainly QS-17 family components; Middle Peak (retention time approximately 2.37-2.42 min) comprising mainly QS-18 family components and desglucosyl-QS-17 family components; and Right Peak (retention time approximately 2.44-2.50 min) comprising mainly QS-21 family components. Peak identity was supported by MS/MS.
Enzyme activity is calculated as the % conversion of the Middle Peak present in the crude bark extract: […]

Row | Molecule | Expt 4-1 % conv [1] [%] | Expt 4-2 % conv [2] [%] | Expt 4-4 % conv [3] [%]
1 | 324 (protein, listed as Kluyveromyces marxianus) MSKFDVEQLLSELNQDEKISLLSAVDFWHTKKIERLGIPAVRVSDGPNGIRGTKFFDGVPSGCFPNGTGLASTFDRDLLETAGKLMAKESIAKNAAVILGPTTNMQRGPLGGRGFESFSEDPYLAGMATSSVVKGMQGEGIAATVKHFVCNDLEDQRFSSNSIVSERALREIYLEPFRLAVKHANPVCIMTAYNKVNGEHCSQSKKLLIDILRDEWKWDGMLMSDWFGTYTTAAAIKNGLDIEFPGPTRWRTRALVSHSLNSREQITTEDVDDRVRQVLKMIKFVVDNLEKTGIVENGPESTSNNTKETSDLLRKIAADSIVLLKNKNNILPLKKEDNIIVIGPNAKAKTSSGGGSASMNSYYVVSPYEGIVNKLGKEVDYTVGAYSHKSIGGLAESSLIDAAKPADAENSGLIAKFYSNPVEERSDDEEPFHVTKVNRSNVHLFDFKHEKVDPKNPYFFVTLTGQYVPQEDGDYIFSLQVYGSGLFYLNDELIIDQKHNQERGSFCFGAGTKERTKKLTLKKGQVYNVRVEYGSGPTSGLVGEFGAGGFQAGVIKAIDDDEEIRNAAELAAKHDKAVLIIGLNGEWETEGYDRENMDLPKRTNELVRAVLKANPNTVIVNQSGTPVEFPWLEDANALVQAWYGGNELGNAIADVLYGDVVPNGKLSLSWPFKLQDNPAFLNFKTEFGRVIYGEDIFVGYRYYEKLQRKVAFPFGYGLSYTTFELDISDFKVTDDKIAISVDVKNTGDKFAGSEVVQVYFSALNSKVSRPVKELKGFEKVHLEPGEKKTVNIDLELKDAISYFNEELGKWHVEAGEYLVSVGTSSDDILSVKEFKVEKELYWKGL | 13.6 | 0.9 | <3
2 | 9 (protein, listed as Streptomyces rubrolavendulae) MTADEAVEAALGALDLDTKARLLAGQDMWTLPAVPAVGLASLVMSDGPVGVRGVRWTADDPSVTLPSPTALAACWDPELARRAGRLLAQEARRKGVHVVLAPTVNLHRSPLGGRHFEAYSEDPYLTAETGAACVRGIQDGGVAATVKHFVANDAETDRFTVDNTVPPRALRELYLAPFEAIVRCARPWALMAAYNQVNGVTMTENRHLQTEVLRDAWGFDGVVVSDWFAARSTTGALVGGLDVAMPGPHTVYGDALAAAVRAGDVDEALVDRSVRRVLRLAARVGALEGAEPAVPSPPAHVDGEALAREIAHRSFVLVRNECGALPLDPARSRRVALVGAAARDARVLGGGSAHVFPARTVSPLDGLAAALPEGTELVHARGADLSGEPAPAGPGFALRAVCRDAEGTVLADVPLPSGQIQWIGADLPGGVTHEALHTVEVTGTYTPREGGAHGFGTRGVGAFTLTVGGRVLYDGTREAEPAGDPFEAFAGTPAEHGAADLAEGVPVEVSLRHTVDRDRPAPLPAVVFSLLHRPPRRDPDELIAEAVEAARGADAAVVVVATTERVESEGFDRADLRLPGRQDDLVRAVAAANPRTVVVVNAGAPVEMPWRDDVAAVLLTWFPGQEGGAALADVLLGAEEPGGRLPTTWPAALADAPVTAVTPVDGELRYEEGPFIGYRAWDRAPGGPAPAYPFGHGLGYTTWEYESLVVTPATARVRVRNTGTRPGREVIQLYVAPRADLAERPARWLVGFASVTAGPGARAEAEIRFAPRPFDVWDEEAGAWTAVPGQYEIRAGRSLTDTRLTVTLELD | 9.2 | 0.9 | <3
3 | 240 (protein, listed as Acidipropionibacterium acidipropionici) MTELTDLPQYLLIRLLSGADDWRTVAAGEVGVRSLHLSDGPHGLRVPDVKGGSLPATCFPTAVTLGASWDRDLAEEVGGALAVEAGALGVDVVLGPGMNIKRHPLGGRNFEYLSEDPVVSGELAAAMVRGIQGRGVAACVKHFAVNNQETMRLCVDAVVDERTLHEIYLAAFETVVRTARPAAVMASYNEINGTAATTNRSLITEVLRGRWGFDGLVMSDWGAVWDRVAALEAGLDLEMPSSAGAFDRSVAAALDSGRLGLDAVLTSVSRLVGLQNRISPPRIDRIPADEHDALARRAATAGTVLAANDGILPLAAGSKVAVIGAFAARPRYQGSGSSQVNPTRVTGLLEALGAKDVEVGYARGYDPEEQRTDAVLVAEAAELAAASDVAVVVTGPPEELESEGYDRTGMDLPAQHDALVRAVLAANPRTVIVVCSGSPVALPWADRAAAVVLAGLGGQAGGGALADVLVGDAEPGGRLAETWPHDLSEVASDPWFPGTGAMVQYREGSAIGYRHTATNGVEPAFCFGHGLSYTRFDWRDAVLTEPWIVAGDGLSVDVEVANVGDRAGSDVVQVYLSDRTGVVSRPRRWLAGFAKVRLEAGQSRRVQVAVGARELGFWDVEKHDWVVPSGHFDVELGRSAHDIVATLDLVVSEGADHAPERAWTPLIAEDDEAFAARLGHEIPRPAATTPFTARSTLGQVRHTPLGGLLHAAAMRRLAAGVRDPRFRRMMEHTVDELPLRNLPSMTKGLVPLESVSLIVDVLNGAPDEILRRSFGGALGLGRGVVDAGRGLWGELSSRIGRLGR | 9.0 | 0.5 | <3
4 | 325 (protein, listed as Ilumatobacter coccineus) MTGTSTGARRGIICGVIDIDAALNALSLADKCRLVAGETNWRTKAFPEAGIPQLKMSDGPTGIRGEGHGSAGTPGVAVPAGITLGASWDPDLLGEIGDLLGREAVRKRAHVLLGPTVNLHRTPIGGRTFECYSEDPELSGALAASYVRAVQRHDVAVTVKHFVCNDTEIDRMTVDVDVDERPLRELYLRPFERAVKEGGAWGIMTAYNRVAGEFAAQNRRLLTDILRGEWGFDGFAVSDWFGVHEPVGAANAGLTLEMPAPVRVYGDRLLAAIEAGSVTEETVDGLVRDLLGVMNRTKADERNCDEPELSIDDPAERALTRRAAIGGTVLLRNEPIDSSGHPVLPVALDGLASMAVIGPNAVIDRSMGGGSASLTPFDHRTLLDALSDRVGPDTDVRYEPGVRIDRLTPIVRSARLRTPDGADGLRLEYVNGTDWDAPATIDTVTSSSMIRFFGTTPDEIDATAFGARVSGSFVPEIDGPHEIGVVSTGPVTMTARTGDGDPIVVVDDPDMLLPRTREFFGYGSEESVATVECRAGEPVHLEVKWRTSAENGFAALRIGVRPPEPSDLIDRAVAAAAEADVAVVVVGTNDEWETEGFDREVMSLPGRQDELVERVVAANPNTVVVVNAGSPVSMDWAADDHPRPAAAIVTSFFAGQEQAEAMVDVLTGVADPAGRLPITYPQRLADTPAFEHHEPVRSAGRPPQQRYAEGLFIGHRHYEANDVAPRFWLGHGLSYGSVEWSTPTASRTSDTAASLDDSPIVVSLSLTNTSDRDATSVVQCYVAPIAPSVERPVRELKAWAKESLPAQARRDVSIELGSSAFRHWDEESGAWKVEPGEYDIVVATSADPDDEHERLRITIT | 6.3 | 0.9 | <3
5 | 319 (protein, Colletotrichum gloeosporioides) MTAAPSDKELLALLSQLTTAEKVLLLSGKSTWETPEIERLHVPSLKVSDGPNGARGAQFTDGTTAACFPACVSLAATFNRSLARQIGVALGEETQTKGAYVLLGPTVCPHRSPLGGRNFESFSEDPFLTGELASEYVVGLQSQRVAATVKHFAINEQDTRRFTVNETVSERAMREIYLRPFEIVVKKADPWCIMTSYPKVNGAYVDDQTTFLKDILRDEWKFKGLVMTDWGAASAAIANGIRNGLDLEMPGPPHRRQPAVVHKLIEDGKVDVKDIDDRVLPLLKLLRQTGKFTDRREPVPERAISRPEHEKLIREAGGEGVVLLKNSDGALPLKPSHLQNIAVLGPLAKHAAAHGGGSASLNCHYKISPFDAIKSRLPDSKLSYSKGAHVFRAYPDFVAGTRNRLGNPGFAADFYENLNLTGEPFYTEEYPRGSFMTLMNENVVTAKSARLSTAYSPNVSGKHYLSFSGMGPARLFINGEFQGEIKETAEAMSFLLGVQEERHLQYDFVTGKTYDIVIESTISPNPNAELYLADDQIAVHLGFVSQQEMDADVLSEAVSFAKDADVALIFVGNTPQWETEGQDMATMTLPADGSQDKLIAEVAKVNPNTIVIITTGVPVELPWLENVAAVVQAWYGGQETGNSILDVLLGEVNPSGRLPMSWPKKNEHTACYGHFGLDSWDSREVEYVEGVNVGYRHFDSQYGTEQEVMFPFGYGLSYSTFEHSACALSGTLDANDENAKITVAVTVHNTSDVAGSEVVQVYVTPPKSRTGVERPPKALVAFEKIHLNPGAQKDIQLTFKRDGAAFWSEARKLWEVEAGEHEVHVSTSSSPQDIKSTLVLGITKGFTFHP | 10.2 | 0.4 | <3
6 | 338 (protein, listed as Hungateiclostridium thermocellum) MAVDIKKIIKQMTLEEKAGLCSGLDFWHTKPVERLGIPSIMMTDGPHGLRKQREDAEIADINNSVPATCFPSAAGLACSWDRELVERVGAALGEECQAENVSILLGPGANIKRSPLCGRNFEYFSEDPYLSSELAASHIKGVQSQGVGACLKHFAANNQEHRRMTVDTIVDERTLREIYFASFENAVKKARPWVVMCAYNKLNGEYCSENRYLLTEVLKNEWMHDGFVVSDWGAVNDRVSGLDAGLDLEMPTSHGITDKKIVEAVKSGKLSENILNRAVERILKVIFMALENKKENAQYDKDAHHRLARQAAAESMVLLKNEDDVLPLKKSGTIALIGAFVKKPRYQGSGSSHITPTRLDDIYEEIKKAGGDKVNLVYSEGYRLENDGIDEELINEAKKAASSSDVAVVFAGLPDEYESEGFDRTHMSIPENQNRLIEAVAEVQSNIVVVLLNGSPVEMPWIDKVKSVLEAYLGGQALGGALADVLFGEVNPSGKLAETFPVKLSHNPSYLNFPGEDDRVEYKEGLFVGYRYYDTKGIEPLFPFGHGLSYTKFEYSDISVDKKDVSDNSIINVSVKVKNVGKMAGKEIVQLYVKDVKSSVRRPEKELKGFEKVFLNPGEEKTVTFTLDKRAFAYYNTQIKDWHVESGEFLILIGRSSRDIVLKESVRVNSTVKIRKRFTVNSAVEDVMSDSSAAAVLGPVLKEITDALQIDMDNAHDMMAANIKNMPLRSLVGYSQGRLSEEMLEELVDKINNVE | 6.3 | 0.5 | <3
